The values that follow come from patent US20040092720A1 (US Dept. of Health and Human Services, published 2004).

B1: Peptide D55 (peptide)
peptide: GGSLAFGTALCIAIVLRFKKT
notes: alanine-scan variant of the domain IV 21-mer
B2: Peptide D45 (peptide)
peptide: GGSLAFGTLLCIAIVLRFKAT
notes: as for B1
B3: Peptide D46 (peptide)
peptide: GGSLAFGTLLCIAIVLRFAKT
notes: as for B1
B4: Peptide D47 (peptide)
peptide: GGSLAFGTLLCIAIVLRAKKT
notes: as for B1
B5: Peptide D48 (peptide)
peptide: GGSLAFGTLLCIAIVLAFKKT
notes: as for B1
B6: Peptide D54 (peptide)
peptide: GGSLAFGTLACIAIVLRFKKT
notes: as for B1
B7: Peptide D44 (peptide)
peptide: GGSLAFGTLLCIAIVLRFKKA
notes: as for B1
B8: Peptide D50 (peptide)
peptide: GGSLAFGTLLCIAIALRFKKT
notes: as for B1
B9: Peptide D57 (peptide)
peptide: GGSLAFATLLCIAIVLRFKKT
notes: as for B1
B10: Peptide D56 (peptide)
peptide: GGSLAFGALLCIAIVLRFKKT
notes: as for B1
B11: Peptide D52 (peptide)
peptide: GGSLAFGTLLCAAIVLRFKKT
notes: as for B1
B12: Peptide D53 (peptide)
peptide: GGSLAFGTLLAIAIVLRFKKT
notes: as for B1
B13: Peptide D51 (peptide)
peptide: GGSLAFGTLLCIAAVLRFKKT
notes: as for B1
B14: Peptide D49 (peptide)
peptide: GGSLAFGTLLCIAIVARFKKT
notes: as for B1

One assay concerns the target T1, recombinant human IL-6 (human, UniProt P05231 30-212, labeled with radioactive iodine).
T1 construct: Labeled probe in solution, added to wells that carry the synthetic peptides; also called IL-6 ligand; Interleukin-6
Briefly: radioiodinated IL-6 on peptide array; experiment D1-D10. Here is the method: (§1) Synthetic peptide arrays were constructed in 96-well microtiter plates in accordance with the method set forth in WO 91/02714 (Saxinger), and used to test the binding of recombinant human IL-6 that had been labeled with radioactive iodine (radiolabeling by standard methods). After incubating the radiolabeled IL-6 ligand in a well with each synthetic peptide, a washing step was performed to remove unbound label, and the relative level of radioactivity remaining in each well of the plate was evaluated to determine the relative affinity of each peptide for IL-6 ligand.
Take TFLVAGGSLAFGTLLCIAIVL [Peptide D4]: the Counts/minute bound worked out at 32000 counts/minute.

CIAIVLRFKKTWKLRALKEGK [Peptide D7]: the Counts/minute bound worked out at 52500 counts/minute.

Take ATSLPVQDSSSVPLPTFLVAG [Peptide D1]: the Counts/minute bound worked out at 4000 counts/minute.

As for VQDSSSVPLPTFLVAGGSLAF [Peptide D2], the Counts/minute bound was determined as 4520 counts/minute.

As to GGSLAFGTLLCIAIVLRFKKT (also called D11; D27) [Peptide D5], the Counts/minute bound amounted to 159000 counts/minute. For the molecule SVPLPTFLVAGGSLAFGTLLC [Peptide D3], the Counts/minute bound came out at 19800 counts/minute. With FGTLLCIAIVLRFKKTWKLRA [Peptide D6], the Counts/minute bound came out at 144000 counts/minute.

In the next assay the target is T1, recombinant human IL-6. Briefly: radioiodinated IL-6 on peptide array; experiment D11-D57. Here is the method:
as §1
Turning to FGTLLCIAIVLRFKKT [Peptide D32], the Counts/minute bound is 21800 counts/minute. Same read-out and setting: for AIVLRFKKT [Peptide D39] the value was 4880 counts/minute. The same measure, in the same setting: for LCIAIVLRFKKT [Peptide D36] the value was 12400 counts/minute. Still for that read-out and setting: the value for TLLCIAIVLRFKKT [Peptide D34] was 12400 counts/minute; that for AFGTLLCIAIVLRFKKT [Peptide D31] was 24000 counts/minute.

For the molecule GGSLAFGT [Peptide D24], the Counts/minute bound came to 981 counts/minute. Regarding GGSLAFGTLLCIAIVLRFK [Peptide D13], the Counts/minute bound was found to be 16100 counts/minute.

As for GSLAFGTLLCIAIVLRFKKT [Peptide D28], the Counts/minute bound was 26400 counts/minute. Consider GGSLAFGTLLCIAIVLRFKK [Peptide D12], for which the Counts/minute bound is 18100 counts/minute. Same read-out and setting: the value for GGSLAFG (also called GGSLAFG) [Peptide D25] was 952 counts/minute. As to GGSLAFGTLLCIAIVLRF [Peptide D14], the Counts/minute bound was determined as 7690 counts/minute.

With GGSLAFGTLLCIAIV [Peptide D17], the Counts/minute bound was found to be 1340 counts/minute. As to LRFKKT [Peptide D42], the Counts/minute bound (counts/minute) worked out at 1960. For GTLLCIAIVLRFKKT [Peptide D33], the Counts/minute bound came out at 15700 counts/minute. Same read-out and setting: for LAFGTLLCIAIVLRFKKT [Peptide D30] the value was 22700 counts/minute; for GGSLAFGTLLCIAI [Peptide D18], 1180 counts/minute.

For the molecule GGSLAF (also called GGSLAF) [Peptide D26], the Counts/minute bound was determined as 1050 counts/minute. As for SLAFGTLLCIAIVLRFKKT [Peptide D29], the Counts/minute bound came to 24700 counts/minute.

As for VLRFKKT (also called VLRFKKT) [Peptide D41], the Counts/minute bound is 2550 counts/minute. The same measure, in the same setting: the value for LLCIAIVLRFKKT [Peptide D35] was 15500 counts/minute; that for GGSLAFGTLLCIA [Peptide D19] was 1150 counts/minute; that for GGSLAFGTLLCIAIVL [Peptide D16] was 2460 counts/minute.

In the case of IVLRFKKT [Peptide D40], the Counts/minute bound came out at 4450 counts/minute.

As for GGSLAFGTLLC [Peptide D21], the Counts/minute bound turned out to be 1110 counts/minute. With GGSLAFGTL [Peptide D23], the Counts/minute bound came out at 997 counts/minute.

Regarding B1, the Counts/minute bound came out at 22100 counts/minute.

B2: the Counts/minute bound came out at 28600 counts/minute. Same read-out and setting: the value for B3 was 30800 counts/minute. The same measure, in the same setting: the value for B4 was 20900 counts/minute.

Regarding B5, the Counts/minute bound is 29400 counts/minute. On the same count and under the same terms, the value for B6 was 22000 counts/minute; that for B7 was 21400 counts/minute.

Consider B8, for which the Counts/minute bound stood at 17900 counts/minute. Same read-out and setting: for B9 the value was 22300 counts/minute; for B10, 23000 counts/minute; for B11, 27700 counts/minute. Take B12: the Counts/minute bound is 34900 counts/minute. Turning to B13, the Counts/minute bound worked out at 28500 counts/minute. The same measure, in the same setting: the value for B14 was 22100 counts/minute; that for GGSLAFGTLLCIAIVLR [Peptide D15] was 3950 counts/minute; that for CIAIVLRFKKT [Peptide D37] was 8350 counts/minute.

On to GGSLAFGTLLCI [Peptide D20], for which the Counts/minute bound is 1200 counts/minute. Turning to GGSLAFGTLL [Peptide D22], the Counts/minute bound amounted to 1000 counts/minute.

On to IAIVLRFKKT [Peptide D38], for which the Counts/minute bound turned out to be 6800 counts/minute.

The next assay addresses T1, recombinant human IL-6. Briefly: radioiodinated IL-6 on peptide array.
Turning to NEEDFVRLKQQISDHISQSCGSGQ [Peptide E85], the Counts/minute bound worked out at 1110 counts/minute.

Regarding GSGQMKMFQEVSAADAFGPGTEGQ [Peptide E87], the Counts/minute bound is 1000 counts/minute. Regarding VSAADAFGPGTEGQVERFETVGME [Peptide E88], the Counts/minute bound is 1090 counts/minute. Same read-out and setting: for QHESSPDISHFERSKQVSSVNEED [Peptide E83] the value was 1250 counts/minute; for FERSKQVSSVNEEDFVRLKQQISD [Peptide E84], 1020 counts/minute; for MPKSYLPQTVRQGGYMPQ [Peptide E91], 1230 counts/minute. As for VGMEAATDEGMPKSYLPQTVRQGG [Peptide E90], the Counts/minute bound came to 1380 counts/minute. With TEGQVERFETVGMEAATDEGMPKS [Peptide E89], the Counts/minute bound was 1130 counts/minute. On to QISDHISQSCGSGQMKMFQEVSAA [Peptide E86], for which the Counts/minute bound is 1240 counts/minute.
